# Laboratory results reported in patent publication US20220406376A1 (MacroGenics, published 2022).
# Assays:
# [1] = target: T1, extracellular portion of human CD137 fused to a histidine-containing peptide (human, UniProt Q07011 24-186); test: SPR (BIACORE); antibody captured on anti-human Fc; huCD137 25 and 100 nM; 1:1 Langmuir
# T1 construct: extracellular domain; also called huCD137; His-tagged soluble human CD137
# Procedure: (§1) Thus, an extracellular portion of human CD137 fused to a histidine-containing peptide (“huCD137”) was passed over a surface coated with immobilized antibody. Briefly, each test molecule was captured onto an F(ab)₂ goat-anti-human Fc-coated surface and then incubated in the presence of different concentrations (25 nM and 100 nM) of huCD137. The kinetics of binding were determined via BIACORE® analysis binding (normalized 1:1 Langmuir binding model).
# [2] = target: T1, extracellular portion of human CD137 …; test: SPR (BIACORE), against chCD137 MAB-3
# Procedure: as §1
# [3] = target: T2, HER2/neu on the surface of target cells (N87, JIMT-1, MCF-7, MDA-MB231) (UniProt P04626 23-1255, limits assumed); test: flow cytometry on JIMT-1 cells, anti-hFc APC MFI
# T2 construct: whole, on cells
# Summary of the method: (§2)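 N87 or JIMT-1 cells were incubated 45 min at RT with serially diluted (5- or 10-fold) bispecific diabodies. Bound molecules were detected with APC-labelled anti-human Fc (30 min, RT), and APC MFI was read by flow cytometry.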
# [4] = target: T3, CD137 on the surface of cells (activated human T cells; engineered CHO cells) (human, UniProt Q07011 24-255); test: flow cytometry on CD137-expressing CHO cells (CHO/137), anti-hFc APC MFI
# T3 construct: whole, on cells; also called human CD137; cell surface expressed CD137
# [5] = target: T2, HER2/neu on the surface of target cells …; test: flow cytometry on N87 cells, anti-hFc APC MFI
# Summary of the method: as §2
# [6] = target: T2, HER2/neu on the surface of target cells …; test: flow cytometry on N87 gastric cancer cells, anti-hFc APC MFI
# [7] = target: T4, extracellular portion of human HER2 fused to a histidine-containing peptide (human, UniProt P04626 23-652); test: SPR (BIACORE), essentially as for Table 8
# T4 construct: extracellular domain; also called huHER2; Human HER2/neu
# Text: The humanized variants were selected to have improved binding affinity as compared to the parental murine antibody and as described may be further engineered to eliminate sequence liabilities (e.g., isomerization, deamidation sites) as described above. The binding affinity of several combinations of humanized VH and VL domains was examined by BIACORE®. Thus, an extracellular portion of human HER2 fused to a histidine-containing peptide (“huHER2”) was passed over a surface coated with immobilized antibody. Briefly, each test molecule was captured onto an F(ab)₂ goat-anti-human Fc-coated surface and then incubated in the presence of different concentrations (6.25 nM-50 nM) of huHER2. The kinetics of binding were determined via BIACORE® analysis binding (normalized 1:1 Langmuir binding model).
# In a separate study, the binding kinetics of the CD137×TA bispecific diabody, DART-B (described above), were determined for binding to human HER2 and cynomolgus monkey HER2, essentially as described above.
# [8] = target: T3, CD137 on the surface of cells …; test: flow cytometry on activated CD8+ T cells (CD8 FITC), anti-hFc APC MFI
# [9] = target: T3, CD137 on the surface of cells …; test: flow cytometry on activated pan T cells gated CD8, anti-hFc APC MFI
# [10] = target: T5, 5T4 on the surface of target cells (JIMT-1, SKOV-3) (UniProt Q13641 32-420, limits assumed); test: flow cytometry on SKOV-3 (5T4 lo) cells, anti-hFc APC MFI
# T5 construct: whole, on cells
# T5 sequence (looked up): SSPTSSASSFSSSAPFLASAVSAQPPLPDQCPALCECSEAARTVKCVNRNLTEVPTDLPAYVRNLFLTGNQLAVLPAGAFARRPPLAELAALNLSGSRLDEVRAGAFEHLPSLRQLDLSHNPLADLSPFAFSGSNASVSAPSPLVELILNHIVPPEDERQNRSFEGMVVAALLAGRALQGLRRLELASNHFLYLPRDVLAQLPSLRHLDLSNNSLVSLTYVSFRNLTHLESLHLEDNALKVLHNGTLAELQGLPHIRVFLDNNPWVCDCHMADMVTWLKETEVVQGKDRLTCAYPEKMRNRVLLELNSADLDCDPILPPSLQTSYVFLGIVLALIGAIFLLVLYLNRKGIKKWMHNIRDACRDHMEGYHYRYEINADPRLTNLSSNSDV
# [11] = target: T5, 5T4 on the surface of target cells …; test: flow cytometry on JIMT-1 (5T4 hi) cells, anti-hFc APC MFI
# [12] = target: T3, CD137 on the surface of cells …; test: flow cytometry on activated CD8+ T cells (donor D59788, CD8 FITC), anti-hFc APC MFI
# T3 sequence (Q07011 24-255, change not shown): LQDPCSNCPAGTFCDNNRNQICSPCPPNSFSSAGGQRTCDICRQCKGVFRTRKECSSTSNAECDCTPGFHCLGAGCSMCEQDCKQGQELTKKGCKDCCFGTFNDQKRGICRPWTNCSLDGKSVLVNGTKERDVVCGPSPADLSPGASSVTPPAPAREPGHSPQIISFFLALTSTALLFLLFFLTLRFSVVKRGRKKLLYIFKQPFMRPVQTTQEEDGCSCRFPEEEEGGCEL
binder,measurement,setting,value
"hCD137 MAB-3 (1.1) (antibody, V domains shown, also called chCD137 MAB-3 (1.1)) VH: QVQLVQSGAEVKKPGASVKVSCKASGYTFTSYWINWVKQAPGQGLEWIGNIYPSDSYTNYNQKFKDKATITADKSTSTAYMELSSLRSEDTAVYYCTRDYGSSYSFDYWGQGTTVTVSS VL: DIQMTQSPSSLSASVGDRVTITCRPSQDISNYLNWYQQKPDGTVKLLIYYTSRLRSGVPSRFSGSGSGTDFTFTISSLQPEDIATYFCQQGDTLPYTFGQGTKLEIK",Kd,[1],46 nM
same,koff,[1],0.031 s⁻¹
same,kon,[1],670000 M⁻¹ s⁻¹
same,fold decrease in binding affinity relative to the murine antibodies,[2],~2 fold
DART-B (bispecific antibody) chain 1: not shown chain 2: DIQMTQSPSSLSASVGDRVTITCRPSQDISNYLNWYQQKPDKTVKLLIYYTSRLRSGVPSRFSGSGSGTDFTFTISSLQPEDIATYFCQQGDTLPYTFGQGTKLEIKGGGSGGGGQVQLVQSGAEVKKPGASVKVSCKASGYTFTNYGMNWVRQAPGQGLEWMGWINTNIGEPTYTEEFKGRVTMTRDTSISTAYMELSRLRSDDTAVYYCARDDGYGNRVSYWGQGTLVTVSSGGCGGGKVAACKEKVAALKEKVAALKEKVAALKE,EC50 (read off the curve),[3],~0.03 µg/mL
same,EC50 (read off the curve),[4],~0.01 µg/mL
same,EC50 (read off the curve),[5],~0.06 µg/mL
same,EC50 (read off the curve),[6],~0.5 nM
same,Kd,[7],0.38 nM
same,koff,[7],0.000182 s⁻¹
same,kon,[7],480000 M⁻¹ s⁻¹
same,EC50 (read off the curve),[8],~0.02 µg/mL
same,EC50 (read off the curve),[9],~0.1 nM
"TRIDENT-B2 (bispecific antibody, human IgG1, kappa, L234A L235A) chain 1: DIQMTQSPSSLSASVGDRVTITCRPSQDISNYLNWYQQKPDKTVKLLIYYTSRLRSGVPSRFSGSGSGTDFTFTISSLQPEDIATYFCQQGDTLPYTFGQGTKLEIKGGGSGGGGQVQLVQSGAEVKKPGASVKVSCKASGYTFTSYWINWVKQAPGQGLEWIGNIYPSDSYTNYNQKFKDKATITADKSTSTAYMELSSLRSEDTAVYYCTRDYGSAYSMSTWGQGTTVTVSSASTKGEVAACEKEVAALEKEVAALEKEVAALEKGGGDKTHTCPPCPAPEAAGGPSVFLFPPKPKDTLMISRTPEVTCVVVDVSHEDPEVKFNWYVDGVEVHNAKTKPREEQYNSTYRVVSVLTVLHQDWLNGKEYKCKVSNKALPAPIEKTISKAKGQPREPQVYTLPPSREEMTKNQVSLWCLVKGFYPSDIAVEWESNGQPENNYKTTPPVLDSDGSFFLYSKLTVDKSRWQQGNVFSCSVMHEALHNHYTQKSLSLSPGK chain 2: DIQMTQSPSSLSASVGDRVTITCRPSQDISNYLNWYQQKPDKTVKLLIYYTSRLRSGVPSRFSGSGSGTDFTFTISSLQPEDIATYFCQQGDTLPYTFGQGTKLEIKGGGSGGGGQVQLVQSGAEVKKPGASVKVSCKASGYTFTSYWINWVKQAPGQGLEWIGNIYPSDSYTNYNQKFKDKATITADKSTSTAYMELSSLRSEDTAVYYCTRDYGSAYSMSTWGQGTTVTVSSASTKGKVAACKEKVAALKEKVAALKEKVAALKE heavy: QVQLVQSGAEVKKPGASVKVSCKASGYTFTSFWMHWVRQAPGQGLEWMGRIDPNRGGTEYNEKAKSRVTMTADKSTSTAYMELSSLRSEDTAVYYCAGGNPYYPMDYWGQGTTVTVSSASTKGPSVFPLAPSSKSTSGGTAALGCLVKDYFPEPVTVSWNSGALTSGVHTFPAVLQSSGLYSLSSVVTVPSSSLGTQTYICNVNHKPSNTKVDKRVEPKSCDKTHTCPPCPAPEAAGGPSVFLFPPKPKDTLMISRTPEVTCVVVDVSHEDPEVKFNWYVDGVEVHNAKTKPREEQYNSTYRVVSVLTVLHQDWLNGKEYKCKVSNKALPAPIEKTISKAKGQPREPQVYTLPPSREEMTKNQVSLSCAVKGFYPSDIAVEWESNGQPENNYKTTPPVLDSDGSFFLVSKLTVDKSRWQQGNVFSCSVMHEALHNRYTQKSLSLSPGK light: DIQMTQSPSSLSASVGDRVTITCRASQGISNYLAWFQQKPGKAPKSLIYRANRLQSGVPSRFSGSGSGTDFTLTISSLQPEDVATYYCLQYDDFPWTFGQGTKLEIKRTVAAPSVFIFPPSDEQLKSGTASVVCLLNNFYPREAKVQWKVDNALQSGNSQESVTEQDSKDSTYSLSSTLTLSKADYEKHKVYACEVTHQGLSSPVTKSFNRGEC",EC50 (read off the curve),[10],~0.04 µg/mL
same,EC50 (read off the curve),[11],~0.08 µg/mL
same,EC50 (read off the curve),[12],~0.007 µg/mL
"TRIDENT-B5 (bispecific antibody, human IgG1, kappa, L234A L235A, also called TRIDENT-BS) chain 1: DIQMTQSPSSLSASVGDRVTITCQASQDISNYLNWYQQKPDKTVKLLIYYTGRARSGVPSRFSGSGSGTDFTFTISSLQPEDIATYFCQQGDTLPYTFGQGTKLEIKGGGSGGGGQVQLVQSGAEVKKPGASVKVSCKASGYTFTSYWINWVRQAPGQGLEWIGNIYPSDSYTNYNQKFKDKATITADKSTSTAYMELSSLRSEDTAVYYCTRDYGSAYSMSTWGQGTTVTVSSASTKGEVAACEKEVAALEKEVAALEKEVAALEKGGGDKTHTCPPCPAPEAAGGPSVFLFPPKPKDTLMISRTPEVTCVVVDVSHEDPEVKFNWYVDGVEVHNAKTKPREEQYNSTYRVVSVLTVLHQDWLNGKEYKCKVSNKALPAPIEKTISKAKGQPREPQVYTLPPSREEMTKNQVSLWCLVKGFYPSDIAVEWESNGQPENNYKTTPPVLDSDGSFFLYSKLTVDKSRWQQGNVFSCSVMHEALHNHYTQKSLSLSPGK chain 2: DIQMTQSPSSLSASVGDRVTITCQASQDISNYLNWYQQKPDKTVKLLIYYTGRARSGVPSRFSGSGSGTDFTFTISSLQPEDIATYFCQQGDTLPYTFGQGTKLEIKGGGSGGGGQVQLVQSGAEVKKPGASVKVSCKASGYTFTSYWINWVRQAPGQGLEWIGNIYPSDSYTNYNQKFKDKATITADKSTSTAYMELSSLRSEDTAVYYCTRDYGSAYSMSTWGQGTTVTVSSASTKGKVAACKEKVAALKEKVAALKEKVAALKE heavy: QVQLVQSGAEVKKPGASVKVSCKASGYTFTSFWMHWVRQAPGQGLEWMGRIDPNRGGTEYNEKAKSRVTMTADKSTSTAYMELSSLRSEDTAVYYCAGGNPYYPMDYWGQGTTVTVSSASTKGPSVFPLAPSSKSTSGGTAALGCLVKDYFPEPVTVSWNSGALTSGVHTFPAVLQSSGLYSLSSVVTVPSSSLGTQTYICNVNHKPSNTKVDKRVEPKSCDKTHTCPPCPAPEAAGGPSVFLFPPKPKDTLMISRTPEVTCVVVDVSHEDPEVKFNWYVDGVEVHNAKTKPREEQYNSTYRVVSVLTVLHQDWLNGKEYKCKVSNKALPAPIEKTISKAKGQPREPQVYTLPPSREEMTKNQVSLSCAVKGFYPSDIAVEWESNGQPENNYKTTPPVLDSDGSFFLVSKLTVDKSRWQQGNVFSCSVMHEALHNRYTQKSLSLSPGK light: DIQMTQSPSSLSASVGDRVTITCRASQGISNYLAWFQQKPGKAPKSLIYRANRLQSGVPSRFSGSGSGTDFTLTISSLQPEDVATYYCLQYDDFPWTFGQGTKLEIKRTVAAPSVFIFPPSDEQLKSGTASVVCLLNNFYPREAKVQWKVDNALQSGNSQESVTEQDSKDSTYSLSSTLTLSKADYEKHKVYACEVTHQGLSSPVTKSFNRGEC",EC50 (read off the curve),[10],~0.04 µg/mL
same,EC50 (read off the curve),[11],~0.08 µg/mL
same,EC50 (read off the curve),[12],~0.007 µg/mL
